According to IntAct's records for PubMed 12679424:

B1: Insulin receptor substrate 1 (Homo sapiens), P35568 (parent)
chain: MASPPESDGFSDVRKVGYLRKPKSMHKRFFVLRAASEAGGPARLEYYENEKKWRHKSSAPKRSIPLESCFNINKRADSKNKHLVALYTRDEHFAIAADSEAEQDSWYQALLQLHNRAKGHHDGAAALGAGGGGGSCSGSSGLGEAGEDLSYGDVPPGPAFKEVWQVILKPKGLGQTKNLIGIYRLCLTSKTISFVKLNSEAAAVVLQLMNIRRCGHSENFFFIEVGRSAVTGPGEFWMQVDDSVVAQNMHETILEAMRAMSDEFRPRSKSQSSSNCSNPISVPLRRHHLNNPPPSQVGLTRRSRTESITATSPASMVGGKPGSFRVRASSDGEGTMSRPASVDGSPVSPSTNRTHAHRHRGSARLHPPLNHSRSIPMPASRCSPSATSPVSLSSSSTSGHGSTSDCLFPRRSSASVSGSPSDGGFISSDEYGSSPCDFRSSFRSVTPDSLGHTPPARGEEELSNYICMGGKGPSTLTAPNGHYILSRGGNGHRCTPGTGLGTSPALAGDEAASAADLDNRFRKRTHSAGTSPTITHQKTPSQSSVASIEEYTEMMPAYPPGGGSGGRLPGHRHSAFVPTRSYPEEGLEMHPLERRGGHHRPDSSTLHTDDGYMPMSPGVAPVPSGRKGSGDYMPMSPKSVSAPQQIINPIRRHPQRVDPNGYMMMSPSGGCSPDIGGGPSSSSSSSNAVPSGTSYGKLWTNGVGGHHSHVLPHPKPPVESSGGKLLPCTGDYMNMSPVGDSNTSSPSDCYYGPEDPQHKPVLSYYSLPRSFKHTQRPGEPEEGARHQHLRLSTSSGRLLYAATADDSSSSTSSDSLGGGYCGARLEPSLPHPHHQVLQPHLPRKVDTAAQTNSRLARPTRLSLGDPKASTLPRAREQQQQQQPLLHPPEPKSPGEYVNIEFGSDQSGYLSGPVAFHSSPSVRCPSQLQPAPREEETGTEEYMKMDLGPGRRAAWQESTGVEMGRLGPAPPGAASICRPTRAVPSSRGDYMTMQMSCPRQSYVDTSPAAPVSYADMRTGIAAEEVSLPRATMAAASSSSAASASPTGPQGAAELAAHSSLLGGPQGPGGMSAFTRVNLSPNRNQSAKVIRADPQGCRRRHSSETFSSTPSATRVGNTVPFGAGAAVGGGGGSSSSSEDVKRHSSASFENVWLRPGELGGAPKEPAKLCGAAGGLENGLNYIDLDLVKDFKQCPQECTPEPQPPPPPPPHQPLGSGESSSTRRSSEDLSAYASISFQKQPEDRQ

Variants of: B1
Conditions: with p85a_mouse Pik3r1, P26450
Sequence of p85a_mouse Pik3r1, P26450 (P26450 whole entry): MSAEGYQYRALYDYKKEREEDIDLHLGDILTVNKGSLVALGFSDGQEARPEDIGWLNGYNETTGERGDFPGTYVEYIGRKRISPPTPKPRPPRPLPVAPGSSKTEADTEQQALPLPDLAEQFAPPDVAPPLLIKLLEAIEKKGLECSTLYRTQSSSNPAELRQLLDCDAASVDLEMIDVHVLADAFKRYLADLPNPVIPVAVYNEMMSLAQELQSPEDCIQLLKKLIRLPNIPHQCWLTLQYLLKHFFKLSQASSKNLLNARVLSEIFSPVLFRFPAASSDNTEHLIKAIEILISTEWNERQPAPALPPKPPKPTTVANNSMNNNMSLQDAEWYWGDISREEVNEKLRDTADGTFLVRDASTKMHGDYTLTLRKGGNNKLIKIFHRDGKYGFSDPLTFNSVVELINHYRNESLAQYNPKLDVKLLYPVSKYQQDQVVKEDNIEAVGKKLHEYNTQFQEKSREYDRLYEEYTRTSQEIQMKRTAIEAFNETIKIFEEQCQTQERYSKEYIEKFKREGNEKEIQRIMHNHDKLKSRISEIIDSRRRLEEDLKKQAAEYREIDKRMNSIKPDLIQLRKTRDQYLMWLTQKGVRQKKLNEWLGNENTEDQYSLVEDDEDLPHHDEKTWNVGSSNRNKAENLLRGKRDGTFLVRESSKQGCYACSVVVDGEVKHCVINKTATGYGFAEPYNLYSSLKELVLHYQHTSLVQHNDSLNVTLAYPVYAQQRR

effect of a mutation on the interaction	Variant
decreasing interaction	T608R
